Consider 18 molecules from patent publication US20260234245A1 (ELTHERA, published 2026).

To fix the notation:
B1: Humanized optimized antibody “AFF4” (human IgG format; with G236A/S239D/A330L/I332E mutations) (antibody)
heavy: QVQLQESGPGLVKPSQTLSLTCTVTGYSITSDYTWNWIRQFPGKGLEWMGYISYSGSYSYNPSLKSRVTISRDTSKNQFSLKLSSVTAADTAVYYCARSFSYSYGFAYWGQGTLVTVSSASTKGPSVFPLAPSSKSTSGGTAALGCLVKDYFPEPVTVSWNSGALTSGVHTFPAVLQSSGLYSLSSVVTVPSSSLGTQTYICNVNHKPSNTKVDKRVEPKSCDKTHTCPPCPAPELLAGPDVFLFPPKPKDTLMISRTPEVTCVVVDVSHEDPEVKFNWYVDGVEVHNAKTKPREEQYNSTYRVVSVLTVLHQDWLNGKEYKCKVSNKALPLPEEKTISKAKGQPREPQVYTLPPSREEMTKNQVSLTCLVKGFYPSDIAVEWESNGQPENNYKTTPPVLDSDGSFFLYSKLTVDKSRWQQGNVFSCSVMHEALHNHYTQKSLSLSPG
light: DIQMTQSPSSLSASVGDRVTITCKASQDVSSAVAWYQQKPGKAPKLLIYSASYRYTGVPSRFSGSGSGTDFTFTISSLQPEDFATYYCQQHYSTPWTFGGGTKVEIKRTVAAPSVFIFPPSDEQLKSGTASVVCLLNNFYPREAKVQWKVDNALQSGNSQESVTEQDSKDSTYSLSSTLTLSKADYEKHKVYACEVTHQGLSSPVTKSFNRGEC
notes: also called AFF4 antibody
B2: AFF10 (antibody, human IgG1, V domains shown)
VH: QVQLQESGPGLVKPSQTLSLTCTVTGYSITSDYTWNWIRQFPGKGLEWMGYISYSGSYSYHPSLKSRVTISRDTSKNQFSLKLSSVTAADTAVYYCARSFSYGYGFAYWGQGTLVTVSS
VL: DIQMTQSPSSLSASVGDRVTITCKASQDVSSAVAWYQQKPGKAPKLLIYSASYRYTGVPSRFSGSGSGTDFTFTISSLQPEDFATYYCQQHYSTPWTFGGGTKVEIK
B3: AFF8 (antibody, human IgG1, V domains shown)
VH: B2 VH with Y58F, H61N, G103S
VL: B2 VL with T56I
B4: AFF6 (antibody, human IgG1, V domains shown)
VH: B2 VH with Y58F, H61N, F100L
VL: B2 VL
B5: AFF2 (antibody, human IgG1, V domains shown)
VH: B2 VH with Y58F, H61N, G103S
VL: B2 VL
B6: AFF1 (antibody, human IgG1, V domains shown)
VH: B2 VH with T34A, Y58F, H61N, G103S
VL: B2 VL
B7: AFF9 (antibody, human IgG1, V domains shown)
VH: B2 VH with T34A, H61N, G103A
VL: B2 VL
B8: AFF7 (antibody, human IgG1, V domains shown)
VH: B2 VH with T34A, Y58F, H61N, G103S
VL: B2 VL with T56I
B9: AFF5 (antibody, human IgG1, V domains shown)
VH: B2 VH with F100L
VL: B2 VL
B10: AFF3 (antibody, human IgG1, V domains shown)
VH: B2 VH with T34A, H61N, G103S
VL: B2 VL
B11: H1L1 (antibody, V domains shown)
VH: B2 VH with T34A, Y58F
VL: B2 VL
notes: also called humanized antibody variant H1L1; parental antibody H1L1
B12: H4L2 (antibody, V domains shown)
VH: B2 VH with T34A, K44N, G45K, L46V, Y58F
VL: B2 VL with Q3V, K42Q, A43S, S60D, V104L
notes: also called humanized antibody variant H4L2
B13: H3L2 (antibody, V domains shown)
VH: B2 VH with T34A, K44N, Y58F
VL: B2 VL with Q3V, K42Q, A43S, S60D, V104L
notes: also called humanized antibody variant H3L2
B14: H3L1 (antibody, V domains shown)
VH: B2 VH with T34A, K44N, Y58F
VL: B2 VL
notes: also called humanized antibody variant H3L1
B15: H2L1 (antibody, V domains shown)
VH: B2 VH with T34A, K44N, M49I, Y58F
VL: B2 VL
notes: also called humanized antibody variant H2L1
B16: H2L2 (antibody, V domains shown)
VH: B2 VH with T34A, K44N, M49I, Y58F
VL: B2 VL with Q3V, K42Q, A43S, S60D, V104L
notes: also called humanized antibody variant H2L2
B17: H4L1 (antibody, V domains shown)
VH: B2 VH with T34A, K44N, G45K, L46V, Y58F
VL: B2 VL
notes: also called humanized antibody variant H4L1
B18: H1L2 (antibody, V domains shown)
VH: B2 VH with T34A, Y58F
VL: B2 VL with Q3V, K42Q, A43S, S60D, V104L
notes: also called humanized antibody variant H1L2

Residue numbers refer to the chain shown, from its start. In names and notes the source's numbering stands.

T1 sequence (P32004 other isoform, or with tags, fused parts or gaps limits assumed): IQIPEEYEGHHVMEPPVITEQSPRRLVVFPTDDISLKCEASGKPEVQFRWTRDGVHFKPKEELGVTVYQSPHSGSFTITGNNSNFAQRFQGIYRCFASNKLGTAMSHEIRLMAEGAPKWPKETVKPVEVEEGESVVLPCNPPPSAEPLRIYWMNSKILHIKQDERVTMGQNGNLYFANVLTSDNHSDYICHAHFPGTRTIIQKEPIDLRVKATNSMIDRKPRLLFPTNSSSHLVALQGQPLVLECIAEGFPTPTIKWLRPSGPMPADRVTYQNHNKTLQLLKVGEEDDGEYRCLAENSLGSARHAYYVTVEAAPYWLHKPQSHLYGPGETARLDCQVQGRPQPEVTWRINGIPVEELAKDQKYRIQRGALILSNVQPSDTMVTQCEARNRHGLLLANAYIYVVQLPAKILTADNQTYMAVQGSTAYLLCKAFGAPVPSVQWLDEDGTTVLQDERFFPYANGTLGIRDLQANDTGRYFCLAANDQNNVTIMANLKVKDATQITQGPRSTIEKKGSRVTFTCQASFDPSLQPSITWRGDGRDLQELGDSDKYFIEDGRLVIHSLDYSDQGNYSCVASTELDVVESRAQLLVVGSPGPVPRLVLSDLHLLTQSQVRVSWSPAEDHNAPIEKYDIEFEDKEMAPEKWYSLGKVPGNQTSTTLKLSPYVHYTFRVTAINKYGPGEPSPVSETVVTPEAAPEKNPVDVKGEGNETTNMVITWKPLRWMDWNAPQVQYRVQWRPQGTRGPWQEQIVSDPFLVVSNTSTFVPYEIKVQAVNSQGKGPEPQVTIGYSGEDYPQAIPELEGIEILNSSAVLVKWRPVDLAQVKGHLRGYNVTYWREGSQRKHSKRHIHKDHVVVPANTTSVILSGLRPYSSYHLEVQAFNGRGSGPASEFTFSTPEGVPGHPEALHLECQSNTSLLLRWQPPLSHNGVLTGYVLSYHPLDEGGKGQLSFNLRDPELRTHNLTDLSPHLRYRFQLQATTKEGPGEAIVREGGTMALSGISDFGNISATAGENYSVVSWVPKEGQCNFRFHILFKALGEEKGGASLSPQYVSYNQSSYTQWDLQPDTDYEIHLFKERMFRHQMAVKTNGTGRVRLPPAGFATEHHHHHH

One assay concerns the target T1, soluble His-tagged human L1CAM (extracellular portion, amino acids 20 to 1120) (human, UniProt P32004 20-1120).
T1 construct: range 20-1120; Expressed in HEK cells with an N-terminal leader peptide for secretion (not part of the assayed protein)
The experiment in a line: SPR (Biacore T200), antibody captured on Protein A chip, His-tagged human L1CAM as analyte 5, 10, 20, 40 nM, 1:1 Langmuir fit. As to the method:
(§1) Monovalent kinetic binding constants of the eight humanized antibody variants towards human L1CAM were determined by surface plasmon resonance using a Biacore T200 instrument. Antibodies were captured via their Fc regions on a C1 Protein A Chip (GE Healthcare), and soluble His-tagged human L1CAM was injected as analyte in 3 different concentrations (10, 20 and 40 nM), using 10 mM HEPES/150 mM NaCl/3 mM EDTA/0.05% Tween 20 as running buffer. Detected resonance units (sensorgrams) were fitted to a 1:1 Langmuir binding model and association (kₐ) and dissociation (kd) rate constants as well as the affinity constants (KD) were calculated.
The monovalent kinetic binding constants towards human L1CAM were determined by surface plasmon resonance using a Biacore T200 instrument as described in Example 4, except that soluble His-tagged human L1CAM was injected in 4 different concentrations (5, 10, 20 and 40 nM).
For orientation: SPR reads the build-up and loss of mass on a sensor chip optically.
As for B1, binding was characterised by a dissociation constant (Kd) of 0.2 nM, the off-rate constant (koff) turned out to be 8.45e-05 s⁻¹ and the kon amounted to 416000 M⁻¹ s⁻¹.
B2 yielded a dissociation constant Kd of 0.99 nM, a koff of 0.000251 s⁻¹ and a kon of 255000 M⁻¹ s⁻¹.
The molecule B3 showed a dissociation constant Kd of 0.3 nM, a koff of 0.000116 s⁻¹ and an association rate constant (kon) of 383000 M⁻¹ s⁻¹.
The matching figures for B4: 0.98 nM, 0.000337 s⁻¹ and 345000 M⁻¹ s⁻¹.
The matching figures for B5: 0.31 nM, 0.000126 s⁻¹ and 411000 M⁻¹ s⁻¹.
The matching figures for B6: 0.36 nM, 0.000104 s⁻¹ and 290000 M⁻¹ s⁻¹.
Molecule B7 registered a Kd of 0.36 nM, a koff of 9.28e-05 s⁻¹ and a kon of 258000 M⁻¹ s⁻¹.
The matching figures for B8: 0.32 nM, 8.83e-05 s⁻¹ and 273000 M⁻¹ s⁻¹.
With B9, the Kd was 0.72 nM, the koff was 0.000252 s⁻¹ and the kon was 349000 M⁻¹ s⁻¹.
The matching figures for B10: 0.22 nM, 6.52e-05 s⁻¹ and 299000 M⁻¹ s⁻¹.

For the next assay, the target named is T1, soluble His-tagged human L1CAM …. The experiment in a line: SPR (Biacore T200), antibody captured on C1 Protein A chip, His-tagged human L1CAM as analyte 10, 20, 40 nM, 1:1 Langmuir fit. As to the method: as §1
Turning to B11, the Kd turned out to be 4.5 nM, the koff was 0.00079 s⁻¹ and the on-rate (kon) is 177000 M⁻¹ s⁻¹.
The matching figures for B12: 6.3 nM, 0.000859 s⁻¹ and 137000 M⁻¹ s⁻¹.
B13: binding was put at a Kd of 6.8 nM, the off-rate constant (koff) worked out at 0.000887 s⁻¹ and the kon turned out to be 131000 M⁻¹ s⁻¹.
The matching figures for B14: 5.1 nM, 0.000858 s⁻¹ and 168000 M⁻¹ s⁻¹.
Turning to B15, the affinity, expressed as Kd, was 4.4 nM; the koff stood at 0.000751 s⁻¹; the kon was 170000 M⁻¹ s⁻¹.
Regarding B16, the Kd stood at 6 nM, the koff was 0.000867 s⁻¹ and the on-rate constant (kon) was 144000 M⁻¹ s⁻¹.
The matching figures for B17: 4.7 nM, 0.000847 s⁻¹ and 179000 M⁻¹ s⁻¹.
The matching figures for B18: 6.1 nM, 0.000872 s⁻¹ and 144000 M⁻¹ s⁻¹.

By Kd is commonly meant the constant that tells how readily two partners part at equilibrium. Low readings indicate a tighter complex, high ones a looser complex. The term koff denotes the rate constant with which the complex falls apart. A low value points to slow dissociation. One may read the kon as the second-order rate constant of association. Read a high kon as fast association.
